Legend:
gemi_human GMNN [1] = biological target: gemi_human GMNN (UniProt O75496)
gemi_human GMNN [2] = biological target: gemi_human GMNN (UniProt O75496); remark: listed apart in the source

Chain of gemi_human GMNN (O75496 whole entry): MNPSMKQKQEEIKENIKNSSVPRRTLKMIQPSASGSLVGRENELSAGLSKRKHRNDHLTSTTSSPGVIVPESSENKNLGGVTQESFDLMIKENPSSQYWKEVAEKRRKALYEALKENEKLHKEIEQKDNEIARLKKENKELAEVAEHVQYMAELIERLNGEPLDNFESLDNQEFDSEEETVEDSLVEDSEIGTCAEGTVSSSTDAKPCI
Chain of Paired box protein Pax-6 (Homo sapiens), P26367 A252R;A263M (P26367 whole entry A252R/A263M): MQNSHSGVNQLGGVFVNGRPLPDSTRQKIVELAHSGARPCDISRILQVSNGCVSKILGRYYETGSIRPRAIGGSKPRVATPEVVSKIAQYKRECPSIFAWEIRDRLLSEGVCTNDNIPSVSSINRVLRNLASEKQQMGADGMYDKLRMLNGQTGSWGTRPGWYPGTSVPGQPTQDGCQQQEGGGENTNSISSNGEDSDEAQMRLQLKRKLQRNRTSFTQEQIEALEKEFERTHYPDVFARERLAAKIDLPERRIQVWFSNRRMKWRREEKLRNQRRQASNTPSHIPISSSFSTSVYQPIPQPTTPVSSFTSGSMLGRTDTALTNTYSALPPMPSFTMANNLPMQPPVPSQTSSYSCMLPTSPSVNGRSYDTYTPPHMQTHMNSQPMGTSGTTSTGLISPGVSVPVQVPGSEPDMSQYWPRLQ
Chain of Homeobox protein Hox-C9 (Homo sapiens), P31274 R193A;K194A;K195A;R196A (P31274 whole entry R193A/K194A/K195A/R196A): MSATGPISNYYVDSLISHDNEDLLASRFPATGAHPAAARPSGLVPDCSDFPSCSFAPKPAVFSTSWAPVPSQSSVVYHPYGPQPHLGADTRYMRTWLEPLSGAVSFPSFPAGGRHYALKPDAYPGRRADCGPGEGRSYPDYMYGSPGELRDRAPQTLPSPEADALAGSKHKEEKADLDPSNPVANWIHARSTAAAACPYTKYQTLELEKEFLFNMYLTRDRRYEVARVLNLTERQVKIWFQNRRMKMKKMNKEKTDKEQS
Chain of Homeobox protein Hox-C9 (Homo sapiens), P31274 R234A;M245A (P31274 whole entry R234A/M245A): as the sequence (P31274 whole entry R193A/K194A/K195A/R196A) above, with A193R, A194K, A195K, A196R, R234A, M245A counted along it

effect of a mutation on the interaction (gemi_human GMNN [1])	effect of a mutation on the interaction (gemi_human GMNN [2])	Substance
decreasing interaction strength		Homeobox protein Hox-C9 (Homo sapiens), P31274 R193A;K194A;K195A;R196A
decreasing interaction strength		Homeobox protein Hox-C9 (Homo sapiens), P31274 R234A;M245A
	increasing interaction strength	Paired box protein Pax-6 (Homo sapiens), P26367 A252R;A263M

Source: IntAct's records for PubMed 22615398
